Test system: Escherichia coli TOP10
Experiment: shrunken log2 fold change of peptide-encoding DNA abundance (4.5 h post-induction vs induction); higher = less antimicrobial activity (less host growth inhibition)
Details: time post-induction: 4.5 h; library: site-saturation at positions 5, 18, 19, 20
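Further: peptides expressed intracellularly from a pBAD plasmid library in pooled LB shake-flask culture, induced with 0.3% L-arabinose, DNA abundance read by NGS, three biological replicates, DESeq2 with apeglm shrinkage.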

| Sequence | shrunken log2 fold change |
| --- | --- |
| RRIRDRPPRLPRPRPRPIYVPRP | -0.0326 |
| RRIRERPPRLPRPRPRPPMCPRP | -0.305 |
| RRIRKRPPRLPRPRPRPVKCPRP | 0.105 |
| RRIRSRPPRLPRPRPRPRDRPRP | 0.271 |
| RRIRQRPPRLPRPRPRPPQCPRP | 0.114 |
| RRIRIRPPRLPRPRPRPWSPPRP | -0.269 |
| RRIRCRPPRLPRPRPRPNHPPRP | -0.153 |
| RRIRIRPPRLPRPRPRPNDHPRP | -0.569 |
| RRIRVRPPRLPRPRPRPQIAPRP | -0.0465 |
| RRIRKRPPRLPRPRPRPEAQPRP | 0.29 |
| RRIRARPPRLPRPRPRPHLGPRP | 0.0806 |
| RRIRRRPPRLPRPRPRPDVRPRP | 0.0483 |
| RRIRKRPPRLPRPRPRPFNPPRP | -0.0407 |
| RRIRLRPPRLPRPRPRPKCKPRP | -0.223 |
| RRIRCRPPRLPRPRPRPKRYPRP | -0.0053 |
| RRIRFRPPRLPRPRPRPMLLPRP | -0.128 |
| RRIRERPPRLPRPRPRPMCWPRP | 0.451 |
| RRIRQRPPRLPRPRPRPLGLPRP | 0.103 |
| RRIRIRPPRLPRPRPRPHIRPRP | -0.297 |
| RRIRRRPPRLPRPRPRPINEPRP | -0.0486 |
| RRIRVRPPRLPRPRPRPVEHPRP | 0.00181 |
| RRIRDRPPRLPRPRPRPRDWPRP | 0.619 |
| RRIRGRPPRLPRPRPRPAHIPRP | 0.0667 |
| RRIRNRPPRLPRPRPRPECQPRP | 0.00386 |
| RRIRCRPPRLPRPRPRPWSHPRP | -0.0223 |

| Sequence | shrunken log2 fold change |
| --- | --- |
| RRIRWRPPRLPRPRPRPAWHPRP | 0.162 |
| RRIRNRPPRLPRPRPRPAWKPRP | 0.122 |
| RRIRYRPPRLPRPRPRPAFKPRP | -0.145 |
| RRIRPRPPRLPRPRPRPCLIPRP | -0.129 |
| RRIRLRPPRLPRPRPRPGKGPRP | -0.0192 |
| RRIRLRPPRLPRPRPRPALRPRP | 0.178 |
| RRIRFRPPRLPRPRPRPWLIPRP | -0.441 |
| RRIRHRPPRLPRPRPRPSTDPRP | -0.406 |
| RRIRGRPPRLPRPRPRPNVGPRP | 0.125 |
| RRIRMRPPRLPRPRPRPYERPRP | -0.0671 |
| RRIRARPPRLPRPRPRPYCMPRP | -0.495 |
| RRIRNRPPRLPRPRPRPTAKPRP | -0.136 |
| RRIRVRPPRLPRPRPRPYDQPRP | -0.192 |
| RRIRYRPPRLPRPRPRPWNEPRP | -0.0429 |
| RRIRRRPPRLPRPRPRPQHHPRP | -0.0809 |
| RRIRMRPPRLPRPRPRPFCTPRP | -0.0819 |
| RRIRFRPPRLPRPRPRPHLFPRP | -0.238 |
| RRIRLRPPRLPRPRPRPDFHPRP | -0.206 |
| RRIRKRPPRLPRPRPRPLNLPRP | -0.123 |
| RRIRGRPPRLPRPRPRPLKGPRP | -0.117 |
| RRIRRRPPRLPRPRPRPFGNPRP | -0.18 |
| RRIRNRPPRLPRPRPRPSEYPRP | -0.386 |
| RRIRDRPPRLPRPRPRPFFYPRP | -0.0714 |
| RRIRDRPPRLPRPRPRPRPPPRP | 0.935 |
| RRIRERPPRLPRPRPRPAWEPRP | 0.506 |

| Sequence | shrunken log2 fold change |
| --- | --- |
| RRIRHRPPRLPRPRPRPRFVPRP | -0.0283 |
| RRIRERPPRLPRPRPRPWSAPRP | -0.00234 |
| RRIRSRPPRLPRPRPRPFYNPRP | -0.54 |
| RRIRHRPPRLPRPRPRPRLNPRP | -0.249 |
| RRIRSRPPRLPRPRPRPKTYPRP | -0.543 |
| RRIRGRPPRLPRPRPRPVEWPRP | 0.0602 |
| RRIRIRPPRLPRPRPRPNNYPRP | -0.996 |
| RRIRERPPRLPRPRPRPMHRPRP | -0.157 |
| RRIRGRPPRLPRPRPRPHPRPRP | 0.839 |
| RRIRNRPPRLPRPRPRPDYLPRP | -0.142 |
| RRIRIRPPRLPRPRPRPEQCPRP | -0.122 |
| RRIRTRPPRLPRPRPRPRKKPRP | 0.173 |
| RRIRWRPPRLPRPRPRPNDIPRP | -0.565 |
| RRIRQRPPRLPRPRPRPGGRPRP | 0.456 |
| RRIRRRPPRLPRPRPRPCYYPRP | 0.0129 |
| RRIRGRPPRLPRPRPRPIRSPRP | -0.0333 |
| RRIRHRPPRLPRPRPRPGLNPRP | -0.0123 |
| RRIRRRPPRLPRPRPRPFGSPRP | -0.0013 |
| RRIRRRPPRLPRPRPRPHRLPRP | 0.0507 |
| RRIRYRPPRLPRPRPRPCIHPRP | -0.0152 |
| RRIRPRPPRLPRPRPRPNDPPRP | -0.0507 |
| RRIRTRPPRLPRPRPRPSWVPRP | -0.165 |
| RRIRGRPPRLPRPRPRPIYKPRP | -0.071 |
| RRIRWRPPRLPRPRPRPITWPRP | 0.0636 |
| RRIRWRPPRLPRPRPRPDKYPRP | -0.126 |

| Sequence | shrunken log2 fold change |
| --- | --- |
| RRIRQRPPRLPRPRPRPVDPPRP | -0.0233 |
| RRIRPRPPRLPRPRPRPIEEPRP | -0.0376 |
| RRIRFRPPRLPRPRPRPPTTPRP | 0.276 |
| RRIRCRPPRLPRPRPRPKHVPRP | -0.155 |
| RRIRLRPPRLPRPRPRPTNWPRP | 0.0175 |
| RRIRHRPPRLPRPRPRPPCQPRP | 0.0503 |
| RRIRHRPPRLPRPRPRPIGAPRP | 0.173 |
| RRIRNRPPRLPRPRPRPYKAPRP | -0.388 |
| RRIRFRPPRLPRPRPRPFNWPRP | -0.975 |
| RRIRMRPPRLPRPRPRPCGKPRP | 0.0716 |
| RRIRFRPPRLPRPRPRPDTWPRP | 0.0899 |
| RRIRCRPPRLPRPRPRPGSAPRP | 0.148 |
| RRIRSRPPRLPRPRPRPADTPRP | -0.0432 |
| RRIRLRPPRLPRPRPRPNHSPRP | 0.135 |
| RRIRSRPPRLPRPRPRPRWLPRP | 0.297 |
| RRIRERPPRLPRPRPRPSLMPRP | -0.459 |
| RRIRNRPPRLPRPRPRPCKHPRP | -0.344 |
| RRIRCRPPRLPRPRPRPRPSPRP | 0.695 |
| RRIRDRPPRLPRPRPRPDVGPRP | 0.232 |
| RRIRVRPPRLPRPRPRPGWDPRP | 0.243 |
| RRIRERPPRLPRPRPRPDYDPRP | -0.021 |
| RRIRQRPPRLPRPRPRPDNEPRP | -0.359 |
| RRIRNRPPRLPRPRPRPTKHPRP | -0.0431 |
| RRIRVRPPRLPRPRPRPDCVPRP | 0.0012 |
| RRIRKRPPRLPRPRPRPWQQPRP | 0.608 |

| Sequence | shrunken log2 fold change |
| --- | --- |
| RRIRERPPRLPRPRPRPILSPRP | -0.316 |
| RRIRQRPPRLPRPRPRPICLPRP | 0.144 |
| RRIRDRPPRLPRPRPRPCSMPRP | -0.0575 |
| RRIRWRPPRLPRPRPRPTVLPRP | 0.188 |
| RRIRRRPPRLPRPRPRPMWTPRP | -0.132 |
| RRIRIRPPRLPRPRPRPFCTPRP | -0.542 |
| RRIRQRPPRLPRPRPRPVPVPRP | -0.228 |
| RRIRVRPPRLPRPRPRPMRYPRP | 0.453 |
| RRIRDRPPRLPRPRPRPFTRPRP | -0.242 |
| RRIRSRPPRLPRPRPRPHRSPRP | -0.188 |
| RRIRERPPRLPRPRPRPRDVPRP | 0.0772 |
| RRIRHRPPRLPRPRPRPMFHPRP | -0.509 |
| RRIRARPPRLPRPRPRPWLWPRP | 0.435 |
| RRIRPRPPRLPRPRPRPRAEPRP | 0.526 |
| RRIRERPPRLPRPRPRPIRIPRP | -0.00822 |
| RRIRVRPPRLPRPRPRPWTCPRP | -0.0943 |
| RRIRRRPPRLPRPRPRPWQDPRP | 0.0293 |
| RRIRMRPPRLPRPRPRPRIIPRP | -0.138 |
| RRIRFRPPRLPRPRPRPWPYPRP | 0.0261 |
| RRIRCRPPRLPRPRPRPLVGPRP | 3.69 |
| RRIRMRPPRLPRPRPRPDWIPRP | -0.017 |
| RRIRYRPPRLPRPRPRPIWCPRP | -0.268 |
| RRIRKRPPRLPRPRPRPWYTPRP | -0.177 |
| RRIRIRPPRLPRPRPRPWFGPRP | -0.348 |
| RRIRARPPRLPRPRPRPYYLPRP | -0.539 |

| Sequence | shrunken log2 fold change |
| --- | --- |
| RRIRNRPPRLPRPRPRPGDTPRP | -0.0217 |
| RRIRFRPPRLPRPRPRPIWTPRP | -0.0298 |
| RRIRRRPPRLPRPRPRPECYPRP | 0.368 |
| RRIRPRPPRLPRPRPRPDCIPRP | -0.391 |
| RRIRLRPPRLPRPRPRPRIQPRP | 0.239 |
| RRIRCRPPRLPRPRPRPAPQPRP | 0.829 |
| RRIRQRPPRLPRPRPRPQDCPRP | -0.186 |
| RRIRMRPPRLPRPRPRPYKSPRP | -0.215 |
| RRIRIRPPRLPRPRPRPATRPRP | 0.19 |
| RRIRKRPPRLPRPRPRPEQQPRP | 1.43 |
| RRIRDRPPRLPRPRPRPCASPRP | -0.0652 |
| RRIRQRPPRLPRPRPRPKHSPRP | -0.0171 |
| RRIRQRPPRLPRPRPRPEICPRP | 0.0414 |
| RRIRFRPPRLPRPRPRPDCPPRP | -0.364 |
| RRIRFRPPRLPRPRPRPWWGPRP | -0.00459 |
| RRIRERPPRLPRPRPRPEKPPRP | 3.84 |
| RRIRPRPPRLPRPRPRPTKDPRP | -0.166 |
| RRIRRRPPRLPRPRPRPKFCPRP | 0.175 |
| RRIRLRPPRLPRPRPRPIVEPRP | 0.0406 |
| RRIRARPPRLPRPRPRPMHSPRP | -0.106 |
| RRIRERPPRLPRPRPRPKGHPRP | 0.092 |
| RRIRKRPPRLPRPRPRPIDRPRP | -0.0769 |
| RRIRYRPPRLPRPRPRPASVPRP | -0.256 |
| RRIRWRPPRLPRPRPRPQEQPRP | 0.0647 |
| RRIRRRPPRLPRPRPRPGLRPRP | 0.338 |

Source: the supplement of paper PMC9112550, “Optimization of the antimicrobial peptide Bac7 by deep mutational scanning” (BMC Biology, 2022)
